Assays:
[1] = target: the molecule itself; experiment: SEC; purified His6-SANBR(BTB) on a Superdex-200 10/30 column, compared with molecular weight standards; SEC buffer 10 mM HEPES pH 8.0, 0.3 M NaCl, 10% glycerol, 1 mM TCEP
[2] = target: T1, GST-tagged mouse HDAC1 (mouse, UniProt O09106 1-482); experiment: pull-down; 200 nM His6-tagged BTB domain with equimolar GST-tagged protein, 50 mM HEPES pH 8.0, 150 mM NaCl, 0.1% IGEPAL-CA630, 2 mM EDTA, 4 °C; glutathione sepharose 4B; immunoblot anti-His; settings: both partners purified
T1 construct: histone deacetylase 1 (HDAC1), mouse; also called GST-HDAC1; source: E. coli BL21DE3(RIPL), purified (glutathione sepharose 4B, SEC)
T1 sequence (O09106 whole entry, the tested form may be a part): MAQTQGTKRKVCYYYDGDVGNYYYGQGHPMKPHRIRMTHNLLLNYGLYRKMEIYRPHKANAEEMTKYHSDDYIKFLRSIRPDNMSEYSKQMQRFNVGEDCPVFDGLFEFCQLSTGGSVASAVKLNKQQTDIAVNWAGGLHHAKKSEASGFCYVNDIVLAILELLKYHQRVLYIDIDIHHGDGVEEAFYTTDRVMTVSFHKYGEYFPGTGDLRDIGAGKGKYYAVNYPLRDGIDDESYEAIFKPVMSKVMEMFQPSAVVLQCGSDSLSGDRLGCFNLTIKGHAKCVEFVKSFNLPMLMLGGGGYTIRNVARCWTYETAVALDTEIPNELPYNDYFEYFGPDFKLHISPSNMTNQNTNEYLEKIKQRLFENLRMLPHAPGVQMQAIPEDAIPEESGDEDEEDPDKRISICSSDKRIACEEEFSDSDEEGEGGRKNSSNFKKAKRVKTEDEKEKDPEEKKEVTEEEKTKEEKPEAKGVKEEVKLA

B1: His6-SANBR(BTB), the predicted BTB domain of SANBR (amino acids 144-261) (domain or fragment, mouse, UniProt Q68FF0-1 144-261, looked up)
chain: GPNMVIHVCDEAKSLKEDFICPRDLLISEMKYFAEYLSMDAQRWEEVDISVHCDVHIFNWLIKYVKRNTKESKDCEIPALEPGNVISILISSEFLKMDSLVEQCIQYCHKNMNAIVAA
notes: SANBR (KIAA1841), mouse, residues 144-261 containing the BTB domain (predicted BTB domain 147-255); full-length protein has 718 amino acids; cDNA cloned from stimulated mouse splenic B cells; predicted size of the tagged fragment 15 kD; also called His6-tagged SANBR(BTB); KIAA1841 BTB domain; source: E. coli BL21DE3(RIPL), purified (HisTrap FF, SEC); not shown: His6, N-terminal, kept
stoichiometry N [1]: 2 | binding result [2]: binds

Reference: article PMC8141524, “The uncharacterized SANT and BTB domain-containing protein SANBR inhibits class switch recombination” (The Journal of Biological Chemistry, 2021)
